Columns and labels:
[1] = molecular target: MCM replicative helicase hexamer (Mcm2–7), loaded on DNA (Saccharomyces cerevisiae) (UniProt P29469)
[2] = molecular target: MCM replicative helicase hexamer (Mcm2–7), loaded on DNA (Saccharomyces cerevisiae) (UniProt P29469); remark: listed apart in the source
[3] = molecular target: Luc-MCM/Cdt1 (luciferase-tagged MCM in complex with Cdt1) [Saccharomyces cerevisiae]; assay: MCM recruitment assay (DNA pulldown, luciferase-tagged MCM) in ATPγS; details: ARS1 origin, read off a plot

Row | high-salt-resistant luciferase-tagged MCM on the 300 bp[lacO] template, with IPTG against without IPTG, after free MCM–Cdt1 and Cdc6 were washed off [1] [fold] | high-salt-resistant luciferase-tagged MCM on the 300 bp[lacO] template at 30 min, with IPTG against without IPTG (SHs loaded by Orc2∆N behind a LacI roadblock) [2] [fold] | response ([3]; + CDK (Orc2 phosphorylated)) [fmol] | response ([3]; - CDK (ORC not phosphorylated)) [fmol] | Substance
1 | 3.3 | 3.8 | – | – | MCM replicative helicase hexamer (Mcm2–7), loaded on DNA, P29469 1-868; P24279 1-971; P30665 1-933; P29496 1-775; P53091 1-1017; P38132 1-845
2 | – | – | 230 | 250 | origin recognition complex (ORC), wild type mutant Orc6:S106A; Orc6:S116A; Orc6:S123A; Orc6:T146A [Saccharomyces cerevisiae] / Luc-MCM/Cdt1 (luciferase-tagged MCM in complex with Cdt1) [Saccharomyces cerevisiae] chain 6 S106A, chain 6 S116A, chain 6 S123A, chain 6 T146A

From PMC12440816
